In patent US20180050011A1:
Blank lines part the entries; values can stand above or below the molecule they belong to.

Tests used:
S100A9 (human) = biological target: T1, S100A9 (human) (UniProt P06702); assay: cell-based or functional assay
T1 sequence (looked up): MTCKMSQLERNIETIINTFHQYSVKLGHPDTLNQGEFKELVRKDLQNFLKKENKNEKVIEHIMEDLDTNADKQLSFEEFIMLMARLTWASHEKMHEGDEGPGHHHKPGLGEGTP

[1] = biological target: apoptosis-associated speck-like protein containing a caspase-recruitment domain (ASC) (human) (UniProt Q9ULZ3); assay: cell-based or functional assay
Chain of apoptosis-associated speck-like protein containing a caspase-recruitment domain (ASC) (human) (Q9ULZ3 whole entry, the tested form may be a part): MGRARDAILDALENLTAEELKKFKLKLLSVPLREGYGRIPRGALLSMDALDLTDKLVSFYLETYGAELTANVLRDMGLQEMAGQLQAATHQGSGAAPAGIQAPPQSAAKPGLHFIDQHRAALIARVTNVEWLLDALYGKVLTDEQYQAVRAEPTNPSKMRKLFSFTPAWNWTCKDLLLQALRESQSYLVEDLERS

- colony-forming capacity of MDS BM-MNC (S100A9 (human)): < 6.6 fold
- reduction of the fraction of pyroptotic cells, CD33+ cells (MDS BM-MNC in autologous BM plasma) (S100A9 (human)): 68%
- reduction of the fraction of pyroptotic cells, CD71+ cells (MDS BM-MNC in autologous BM plasma) (S100A9 (human)): 64%
- reduction of the fraction of pyroptotic cells, progenitor cells (MDS BM-MNC in autologous BM plasma) (S100A9 (human)): 23%
- reduction of the fraction of pyroptotic cells, stem cells (MDS BM-MNC in autologous BM plasma) (S100A9 (human)): 44%
Molecule: S100A9 high-affinity chimeric (CD33-IgG1) decoy receptor (from UniProt P20138 18-259) (Fc fusion)

- NLRP3 activation, as measured by ASC oligomerization (flow cytometry, U2AF1-S34F cells transfected with POP-1) [1]: 40 % reduction
B1: pyrin domain-only protein (POP)-1 (protein, UniProt Q8WXC3 1-89, looked up)
chain: MGTKREAILKVLENLTPEELKKFKMKLGTVPLREGFERIPRGALGQLDIVDLTDKLVASYYEDYAAELVVAVLRDMRMLEEAARLQRAA
